Assay results: patent publication US11944637B2, “Biomaterials comprising hyaluronic acid binding peptides and extracellular matrix binding peptides for hyaluronic acid retention and tissue engineering applications” (THE JOHNS HOPKINS UNIVERSITY, priority 2013, dated 2024)
No end group written: not given here.

Key:
collagen II = collagen II (Homo sapiens, UniProt P02458); experiment: Binding of collagen binding peptides conjugated to PEG-fluorescein on a thin coating of collagen II on TCP (fluorescence); conditions: for Normalized fluorescence intensity on collagen II coating: after washing, FIG. 2F, 2I; for Fluorescence intensity, binding on collagen II coating: compared to control and scrambled peptide, FIG. 2E, 2H
Source text: (§1) FIGS. 2A-2K depict the clinically-relevant, non-covalent strategy, for one-step application of HA binding polymer system on tissue surface of the present invention. 2A, The first step in this strategy for coating a tissue surface is the reaction of a maleimide-PEG-NHS crosslinker with primary amines of the HA-binding peptide. Subsequently, peptides that non-covalently bind to ECM components, such as collagen I and collagen II, also having a thiol end group, is reacted to the maleimide. Finally, this polymer-peptide system of the present invention is mixed with an HA solution that binds to the peptide-polymer system, which on a single application makes a biomaterial-HA coating on the tissue surface. The binding of the collagen binding peptides were analyzed on thin coatings of collagen I and II on polystyrene tissue culture plates. A thin coating of collagen I on TCP with: 2B, i) No peptide, only PEG-fluorescein as a control, ii) scrambled collagen I binding peptide conjugated to PEG-fluorescein, iii) collagen I binding peptide conjugated to PEG-fluorescein, iv) scrambled collagen II binding peptide conjugated to PEG-fluorescein, v) collagen II binding peptide conjugated to PEG-fluorescein. […] A thin coating of collagen II on TCP with: 2G, i) No peptide, only PEG-fluorescein as a control, ii) scrambled collagen I binding peptide conjugated to PEG-fluorescein, iii) collagen I binding peptide conjugated to PEG-fluorescein, iv) scrambled collagen II binding peptide conjugated to PEG-fluorescein, v) collagen II binding peptide conjugated to PEG-fluorescein.
(§2) Second, a clinically relevant one-step injection/coating technology of the present invention was developed based on non-covalent binding of the HABpeptide-polymer system. Tissue surfaces, including, for example, articular cartilage, conjunctiva and sclera of an eye, are collagen I and II enriched, and can act as stable anchoring sites for the ECM binding peptides (ECMBPep). The HA-binding peptide that is linked to the ECMBPep through the PEG spacer can recapture HA that is lost through a physical or biological mechanism and can dynamically bind and concentrate HA where it is needed. Specifically, amine functionality of Col I and II ECMBPep were reacted with NHS-PEG-MAL followed by conjugation of C-HABPep to the Maleimide end groups. The resultant biomaterial composition of the present invention is mixed with HA and applied to tissue surfaces in a single step (FIG. 2A).

collagen I = collagen I (Homo sapiens, UniProt P02452+P08123); experiment: Binding of collagen binding peptides conjugated to PEG-fluorescein on a thin coating of collagen I on TCP (fluorescence); conditions: for Normalized fluorescence intensity on collagen I coating: after washing, FIG. 2D, 2K; for Fluorescence intensity, binding on collagen I coating: compared to control and scrambled peptide, FIG. 2C, 2J
Source text: as §1, §2

[1] = system: normal human articular cartilage; experiment: Lubrication testing (cartilage-on-cartilage friction), normal cartilage
Method: (§3) Cartilage sample preparation for lubrication testing. Cartilage samples were prepared for lubrication testing as a modification on previously published protocols (Arthritis and rheumatism 56, 882-891, (2007); Arthritis and rheumatism 50, 516-525, (2004)). Both normal and osteoarthritis tissue samples were ordered through (NDRI, Philadelphia, PA). Tissue samples were received within 24 hours post-mortem or surgery. Normal and diseased samples were received in a sterile container containing Dulbecco's Modified Eagle Medium (DMEM), and protease inhibitor cocktail. Biopsy punches were used to isolate cylindrical disks (radius=6 mm) and annuli (outer radius=4 mm, inner radius=1.5 mm) with small holes punctured through the cylinder walls to improve fluid depressurization. Due to the 24-hour time point in media washing for 24-hours to eliminate any lubricin, HA, and SAPLs; instead samples were washed for 4-6 hours in PBS on a shaker. HA sample groups were always incubated in HA solution (5 mg/mL) for 24-hours post-washing (FIGS. 4b,c). It should be noted that human cartilage was scarce especially in OA samples received.
In later experiments, covalent modification of cartilage surface by HABpep (FIG. 1) was performed on bovine articular cartilage samples. All non-covalent HABpep modification and in vitro lubrication studies were performed using human articular cartilage samples (FIG. 3). Normal human tissue was isolated from cadavers […]. Human OA cartilage samples were isolated from the patients with ages, 58 (F), 60 (F), 61 (M), 65 (M), 69 (M), 71 (F), who underwent total knee arthroplasty. Care was taken to avoid damaging the articular surface during dissection. Samples (outer diameter=8.0 mm, inner diameter=3.0 mm) were microtomed and evenly cut to obtain a flat surface. The superficial layer was maintained intact and only the deep layer of cartilage was cut to obtain a flat layer to glue to the metal counter-surface while friction measurements. Cartilage was used fresh without freezing or the addition of protease inhibitors so as not to change the surface lubrication properties. Samples were washed vigorously in PBS overnight to deplete the cartilage surface of any residual synovial fluid, after which they were functionalized with an HA-binding layer as needed and incubated at 4° C. for about 24 hours in the test lubricant. […]
(§4) Lubrication testing. […] The samples were bathed in the test lubricant, measured with digital calipers, compressed to 82% of their original combined height, and preconditioned by rotating 2 revolutions in each direction at an effective sliding velocity of 3 mm/s, which is defined as the angular velocity times the effective radius of the annulus Reff=2/3[(Ro3−Ri3)/(Ro2−Ri2)]=2.94 mm. […]

[2] = system: human OA cartilage (severely damaged, OA stage 3-4); experiment: Lubrication testing (cartilage-on-cartilage friction), OA cartilage
Method: as §3, with “HA sample groups were always incubated in HA solution (5 mg/mL) for 24-hours post-washing (FIGS. 4b,c). It should be noted that human cartilage was scarce especially in OA samples received.” left out
as §4

articular cartilage = experiment: Visualization of the HA-bound layer with biotinylated HA on cartilage covalently modified with HABPep; format: binding, bovine; conditions: after washing, compared to unmodified cartilage incubated with HA-biotin alone
Method: C-HABPep was conjugated to articular cartilage through a heterobifunctional poly(ethylene glycol) (PEG) spacer. Maleimide-PEG-N-hydroxysuccinimide (MAL-PEG-NHS, 3.5 kDa, Jenkem Technologies), which has functionalities that are thiol- and amine-reactive, was dissolved to 5 mM in 50 mM sodium bicarbonate, pH 7.5 and added to the articular surface. The NHS groups were allowed to react with endogenous amines on the cartilage surface for 30 minutes. PEGylation was confirmed by attenuated total reflectance Fourier transform IR spectroscopy (ATR-FTIR; Bruker Vector 22 with a Pike Miracle ATR attachment). Following thorough washes in buffer to remove unreacted crosslinker, a 1.5 mM solution of C-HABPep was added to the surface to react with maleimide groups for an additional 30 minutes. Surfaces were carefully washed to remove unreacted peptide, yielding a cartilage surface with covalently attached HA-binding functionality. Visualization of the HA-bound layer. Cartilage was conjugated with C-HABPep and incubated with biotinylated HA synthesized as previously described. Briefly, HA (975 kDa) was dissolved in 50 mM boric acid, pH 5.2 at 2 mg/ml. This was combined with biotin hydrazide (Sigma) in a 20:1 weight ratio. […] The reaction was allowed to proceed at room temperature for 16 hours, after which it was dialyzed to remove unreacted biotin hydrazide and EDC. […]

[3] = normal cartilage without coating, tested in HA bath
[4] = normal cartilage, HA bath compared to PBS bath

Sequence of collagen I (P02452 162-1218 limits assumed): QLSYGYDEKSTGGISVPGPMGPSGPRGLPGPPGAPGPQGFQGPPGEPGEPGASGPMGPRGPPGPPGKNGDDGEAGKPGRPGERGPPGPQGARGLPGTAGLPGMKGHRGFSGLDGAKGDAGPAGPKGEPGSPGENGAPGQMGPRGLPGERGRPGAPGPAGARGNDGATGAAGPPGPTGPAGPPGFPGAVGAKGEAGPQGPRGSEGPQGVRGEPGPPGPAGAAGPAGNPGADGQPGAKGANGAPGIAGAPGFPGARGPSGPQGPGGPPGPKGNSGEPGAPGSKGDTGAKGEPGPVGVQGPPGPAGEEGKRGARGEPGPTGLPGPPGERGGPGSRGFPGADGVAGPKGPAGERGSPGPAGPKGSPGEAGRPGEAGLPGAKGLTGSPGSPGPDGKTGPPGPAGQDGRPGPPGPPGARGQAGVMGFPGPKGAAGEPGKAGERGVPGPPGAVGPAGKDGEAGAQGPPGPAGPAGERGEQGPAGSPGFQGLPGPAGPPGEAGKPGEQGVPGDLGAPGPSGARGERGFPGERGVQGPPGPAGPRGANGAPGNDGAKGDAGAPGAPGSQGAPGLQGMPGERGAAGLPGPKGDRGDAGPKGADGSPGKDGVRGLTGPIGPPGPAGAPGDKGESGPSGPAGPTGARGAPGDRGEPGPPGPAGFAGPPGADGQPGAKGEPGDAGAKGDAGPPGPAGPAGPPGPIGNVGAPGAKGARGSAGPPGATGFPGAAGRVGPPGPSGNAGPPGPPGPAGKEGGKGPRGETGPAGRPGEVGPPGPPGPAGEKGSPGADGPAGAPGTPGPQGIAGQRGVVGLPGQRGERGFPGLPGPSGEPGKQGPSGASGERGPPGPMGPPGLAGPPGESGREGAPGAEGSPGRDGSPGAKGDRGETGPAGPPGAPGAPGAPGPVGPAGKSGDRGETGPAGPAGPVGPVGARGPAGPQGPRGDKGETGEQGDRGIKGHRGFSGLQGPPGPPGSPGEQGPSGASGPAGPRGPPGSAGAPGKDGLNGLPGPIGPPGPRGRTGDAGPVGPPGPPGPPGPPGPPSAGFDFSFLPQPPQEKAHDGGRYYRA
Sequence of collagen I (P08123 80-1119 limits assumed): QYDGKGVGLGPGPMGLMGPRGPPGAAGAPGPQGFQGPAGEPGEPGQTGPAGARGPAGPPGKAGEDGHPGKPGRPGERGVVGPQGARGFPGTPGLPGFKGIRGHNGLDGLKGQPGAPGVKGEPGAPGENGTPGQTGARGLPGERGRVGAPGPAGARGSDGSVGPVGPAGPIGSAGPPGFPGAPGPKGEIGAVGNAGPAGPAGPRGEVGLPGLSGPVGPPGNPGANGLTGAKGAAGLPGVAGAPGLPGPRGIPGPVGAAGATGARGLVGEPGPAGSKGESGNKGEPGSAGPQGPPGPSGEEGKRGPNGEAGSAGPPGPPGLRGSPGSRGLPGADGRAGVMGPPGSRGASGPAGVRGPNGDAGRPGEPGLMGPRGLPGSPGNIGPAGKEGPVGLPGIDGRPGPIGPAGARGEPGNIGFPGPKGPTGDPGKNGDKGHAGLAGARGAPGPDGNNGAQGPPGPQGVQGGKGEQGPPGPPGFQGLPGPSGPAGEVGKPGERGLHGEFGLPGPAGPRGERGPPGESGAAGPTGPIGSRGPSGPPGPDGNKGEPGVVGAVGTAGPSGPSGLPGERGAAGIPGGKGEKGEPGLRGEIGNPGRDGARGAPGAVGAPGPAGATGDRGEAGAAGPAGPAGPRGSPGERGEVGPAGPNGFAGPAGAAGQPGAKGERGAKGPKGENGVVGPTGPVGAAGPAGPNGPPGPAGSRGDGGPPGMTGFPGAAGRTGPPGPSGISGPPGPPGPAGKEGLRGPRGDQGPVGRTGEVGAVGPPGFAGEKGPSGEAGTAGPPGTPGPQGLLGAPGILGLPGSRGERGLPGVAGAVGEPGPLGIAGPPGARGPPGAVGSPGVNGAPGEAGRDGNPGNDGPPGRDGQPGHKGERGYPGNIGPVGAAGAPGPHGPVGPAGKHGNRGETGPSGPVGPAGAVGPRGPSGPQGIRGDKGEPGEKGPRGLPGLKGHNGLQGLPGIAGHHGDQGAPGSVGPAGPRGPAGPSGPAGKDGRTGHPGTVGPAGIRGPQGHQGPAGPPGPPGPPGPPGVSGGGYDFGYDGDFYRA
Sequence of collagen II (P02458 182-1241 limits assumed): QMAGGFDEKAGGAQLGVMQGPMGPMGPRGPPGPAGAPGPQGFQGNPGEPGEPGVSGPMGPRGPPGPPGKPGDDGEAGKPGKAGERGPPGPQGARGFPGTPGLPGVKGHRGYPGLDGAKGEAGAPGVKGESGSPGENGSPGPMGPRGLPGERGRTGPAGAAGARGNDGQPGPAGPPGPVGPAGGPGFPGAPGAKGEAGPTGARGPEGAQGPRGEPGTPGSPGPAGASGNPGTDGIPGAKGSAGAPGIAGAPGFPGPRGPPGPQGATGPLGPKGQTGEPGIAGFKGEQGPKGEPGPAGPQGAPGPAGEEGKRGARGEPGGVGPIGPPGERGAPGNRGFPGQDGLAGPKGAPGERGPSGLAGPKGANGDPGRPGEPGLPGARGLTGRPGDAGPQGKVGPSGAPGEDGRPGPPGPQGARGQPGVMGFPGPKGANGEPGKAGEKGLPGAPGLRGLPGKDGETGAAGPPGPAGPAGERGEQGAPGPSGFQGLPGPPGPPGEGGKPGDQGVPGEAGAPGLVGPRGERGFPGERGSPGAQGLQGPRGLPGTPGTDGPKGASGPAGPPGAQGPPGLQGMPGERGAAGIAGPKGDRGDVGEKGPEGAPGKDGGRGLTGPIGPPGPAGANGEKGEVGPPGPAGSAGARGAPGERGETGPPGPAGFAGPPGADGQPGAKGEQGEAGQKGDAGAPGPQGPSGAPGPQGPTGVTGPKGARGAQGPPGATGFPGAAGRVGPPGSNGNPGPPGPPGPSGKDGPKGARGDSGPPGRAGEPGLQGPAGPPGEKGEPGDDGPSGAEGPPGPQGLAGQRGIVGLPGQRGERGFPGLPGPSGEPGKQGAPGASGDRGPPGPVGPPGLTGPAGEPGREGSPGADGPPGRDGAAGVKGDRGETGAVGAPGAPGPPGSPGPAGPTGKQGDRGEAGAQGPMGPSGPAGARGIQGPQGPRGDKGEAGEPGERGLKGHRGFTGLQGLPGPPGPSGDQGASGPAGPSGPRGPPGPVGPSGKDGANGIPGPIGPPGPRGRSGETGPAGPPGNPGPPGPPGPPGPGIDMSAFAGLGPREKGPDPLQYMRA

Normalized fluorescence intensity on collagen II coating (collagen II)	Fluorescence intensity, binding on collagen II coating (collagen II)	Normalized fluorescence intensity on collagen I coating (collagen I)	Fluorescence intensity, binding on collagen I coating (collagen I)	Substance	other results
1.65 times to that of scrambled peptide	significant binding	did not bind	no significant binding	WYRGRL (SEQ ID NO: 4) (also: PEG-fluorescein conjugate; listed as Homo sapiens) [collagen II binding peptide, ECMBPep for collagen II; tested conjugated to PEG-fluorescein]	
				hyaluronic acid [HA]	<μk> kinetic friction [1, 3]: 0.008; <μs> static friction [1, 3]: 0.018; decrease of kinetic total friction value [1, 4]: 72%; decrease of static total friction value [1, 4]: 35%; static lubricity value (<μ> in PBS-<μ> in HA), most severely damaged OA samples vs normal cartilage ([2]; FIG. 4w): approximately 5 times; kinetic lubricity value (<μ> in PBS-<μ> in HA), most severely damaged OA samples vs normal cartilage ([2]; FIG. 4x): approximately 5 times
did not bind	no significant binding	1.55 times to that of scrambled peptide	significant binding	YSFYSDESLQ (SEQ ID NO: 3) (also: PEG-fluorescein conjugate; listed as Homo sapiens) [collagen I binding peptide, ECMBPep for collagen I; tested conjugated to PEG-fluorescein]	
				CRRDDGAHWQFNALTVR (SEQ ID NO: 2) (thiol; MAL-PEG-NHS conjugated to cartilage; listed as Homo sapiens) [HA-binding polymer coating]	Staining of bound biotinylated HA (streptavidin, horseradish peroxidase) (articular cartilage): stained darker; Staining of bound biotinylated HA (streptavidin, horseradish peroxidase) (articular cartilage; listed as C-HABPep): greater intensity of staining
